These sequences were tested on MS2 coat protein (assay: apparent KD of MS2 coat protein, switch OFF state (with FMN for OFF switches, without FMN for ON switches); designed switch direction (-1 OFF switch, 1 ON switch): 1; higher = weaker reporter binding). Conditions: FMN input: 0 or 200 uM; Eterna round: R93 (includes R88 designs).
Summary of the method: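 Values are apparent KD, taken as the median for each design of fits to normalised binding curves from individual clusters. The designed RNA switches were transcribed on-chip from Illumina sequencing clusters and exposed to SNAP-549-labelled MS2 coat protein at twofold increasing amounts from 0.7 or 1.5 nM to 3 µM. Titration used 100 mM Tris-HCl pH 7.5, 80 mM KCl and 4 mM MgCl2, without or with constant ligand.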

Sequence	apparent KD of MS2 coat protein [nM]
AAAACCUGCGUCGAGGAUAUGUAGCCCACUACAUGAGGAUCACCCAUGUGGAUCUUACUGGGUCGACAGAAGGUGAAAGUAAGGC [Ustionon]	39.4
GGGAGGAAGAGAGAGGAUAUCCAAAGGAAAACAUGAGGAUCACCCAUGUAAAAGGUAGGAAAUUGGGAGAAGGCUCAAGAGAUGG [salish99-ss2-052]	39.2
AACAAUCUAUCUGAGGAUAUGUGUCGAAAGACAUGAGGAUCACCCAUGUAAAAACAUGAAAAAACACAGAAGGCAGAUAGAUUGA [SS2: 1146]	81.5
AAAAGACAUGAGGAUCACCCAUGUAGGCCAAAGCAAGGAUAUAGGCCACAGGGACGCGGACUAGAAGGUGCACGGC [Orerorge]	60.2
AGAAAUAAAAGGCAGGAUAUCCAAAAGAAAACAUGAGGAUCACCCAUGUAAAAGAAAAUAAAAUGGGAGAAGGGCCAAAAUAAAG [Fisker 73]	42.3
UAAUAAUAAACCAAGGAUAUGGAGUAUAGCACAUGAGGAUCACCCAUGUGUAGCGUGGGUUAGUACCAGAAGGUGGAGUGAAAUG [JR_SS002_Sub1001]	82.8
AAAUAAAGGACUGAGGAUAUACCACAUGAAACAUGAGGAUCACCCAUGUAGAAAUACAAAGGGUGGUAGAAGGUAGUCCACAAAC [Same State 2.5 so lets mod hyphema)]	68.9
AAAACACAUGAGGAUCACCCAUGUAAAAACAUGAGAGGAUAUGCUUGGAAAACAUGCUAUGCAGAAGGCUCAAGUG [SS1 - 9]	30.1
AGAAAUAAAAGCUAGGAUAUCCAAAAGAAAACAUGAGGAUCACCCAUGUAAAAGAAAAUAAAGUGGGAGAAGGAGCAAAAUAAGA [Starry modified]	35.6
AACAAUCUAUCUGAGGAUAUGUGUCGAAAGACAUGAGGAUCACCCAUGUGAAAACAUGAAAAAACACAGAAGGCAGAUAGAUUGA [SS2: 1147]	70.6
AAAAAACAUGAGGAUCACCCAUGUAAAAAAAUGGGAGGAUAUACAAAAACAAAAAAAAAAGUAGAAGGCCUGAAAA [same state 9]	419
AAGGAACAUGAGGAUCACCCAUGUAAAAAAUAUGGAGGAUAUACUAGAAGAAACAAAAUAGUAGAAGGCCAAAAAA [75%, Ex sub1, 30]	20.6
CGGAAAGAGAGAGAGGAUAUCCAAAGGAAAACAUGAGGAUCACCCAUGUAGAAGGUAGGAAAUUGGGAGAAGGCUCAAGAGAGAG [salish99-ss2-132]	26.7
CAAAACAAAACAUAGGAUAUCAAAACAAAAACAUGAGGAUCACCCAUGUGGAAACAUGAGAAGGAUGAGAAGGAAAACAAAACAA [Meechl SS2 R2 m7]	49.6
CUGGACCUAGGAUAGGAUAUGUGAAUAAUUACAUGAGGAUCACCCAUGUCCAUUUAUAUGGGAACAUAGAAGGGUUUUGGUUAAG [Mat - Same state - Malcolm Mod - D147]	164
AAGAAACAUGAGGAUCACCCAUGUACCCAAAAGGGAGGAUAUCCGAAAGAAAGAAAGAAAGGAGAAGGCCCAUGAA [Xerxes II]	34.2
AAAUAAAGGACUGAGGAUAUACCACAUGAAACAUGAGGAUCACCCAUGUAGAAAUACAAAGGGUGGUAGAAGGCAGUCCACAAAC [Same State 2.5g ( so lets mod hyphema)]	25.5
GUGGUGUAGGUACAGGAUAUGUUGCUCGUAACAUGAGGAUCACCCAUGUACCUAUGAGAUUAAAUGCAGAAGGGUGCACACCACG [Alage]	118
CGGAAGGAGAGGGAGGAUAUCCAAAGGAAAACAUGAGGAUCACCCAUGUAGAAGGUAGGAAAUUGGGAGAAGGCUCAAGAGAGAG [salish99-ss2-131]	24.4
AAAAAACAUGAGGAUCACCCAUGUCGAAAGACGUGAGGAUAUGUACAGACUUCGGUCUGUACAGAAGGCAUGAAAA [SS1 - 1057]	176
GUGGACGUAGGAUAGGAUAUAUGAAUAAUUACAUGAGGAUCACCCAUGUCCAUUUAUAUGGGAACAUAGAAGGGUUGUGGUUAAC [Mat - Same state - Malcolm Mod - D132]	602
GGCAGGAAGAGAGAGGAUAUCCAAAGGAAAACAUGAGGAUCACCCAUGUAAAAGGUAGGAAAUUGGGAGAAGGCUCAAGAGAGAG [salish99-ss2-099]	35.4

Sequence	apparent KD of MS2 coat protein [nM]
GGGAGACAUGAGGAUCACCCAUGUGAGAAGAGGCGAGGAUAUCGAAAGAAAGAAGAGAAACGAGAAGGCGCGAGCA [salish99-SS1-052]	60.4
CAUAGACAUGAGGAUCACCCAUGUAGAAUUAUGGGAGGAUAUACAAAGACGAGAGUCAGAGUAGAAGGCCUAGGAC [salish99-ss1-164]	28.3
AAUAUACAUGAGGAUCACCCAUGUUAGGUGGGUCAAGGAUAUCAAAAUAAAUAAAGAACAUGAGAAGGUGAAUAAA [JR_SS001_Sub018]	161
GAAAAACAUGAGGAUCACCCAUGUGUAAAUAUGGAAGGAUAUACGAAGACGUAAGUCAAAGUAGAAGGUCUAAAAG [Garnet 99]	24.9
GGAAGACAUGAGGAUCACCCAUGUGGGAAUAUGGGAGGAUAUACAAAGACGAGAGUCAGAGUAGAAGGCCUAGGAU [salish99-ss1-100]	138
AUAACACAUGAGGAUCACCCAUGUAGAUACCCGUCAGGAUAUGCAAAGAAAAUAAACAAAGCAGAAGGGACAAUAA [SS 1 Tesla 2]	30.4
AAAAAACAUGAGGAUCACCCAUGUCUUUUGACAUGAGGAUAUGUACAGACUUCGGUCUGUACAGAAGGCAUAAAAA [SS1 - 1030]	480
AAAAGACAUGAGGAUCACCCAUGUGAAAACGUAGGAGGAUAUGUAUGGAAACCAGACUGUACAGAAGGCCUUUGUC [SS1 - 75]	23.3
GAGAUACAUGAGGAUCACCCAUGUUGAAACAUGGGAGGAUAUACAAGGUCGAAAGAUAAGGUAGAAGGCCUAAAAG [LROPPY Same State 1 - v04_deltaG=3.]	20.3
AGAAUAAAAAGACAGGAUAUCCAAAAGAAAACAUGAGGAUCACCCAUGUAAAAAAAAAUAAAAUGGGAGAAGGGUCAAAAUAAAG [Mat - Same State 2 - JL mod - D69]	44
AGUAAACAUGAGGAUCACCCAUGUGGUGGCCCAUGAGGAUAUCCAUGCGCAAUGCGCAUAGGAGAAGGCAUAGCCA [Enenerla]	52.6
UUUCAUUACACGAAGGAUAUCGCUUUUCAGACAUGAGGAUCACCCAUGUAGUAGAUUUCCCUGUUCGAGAAGGUCGCGGGUGAAC [JR_SS002_Sub603]	70.4
AAAUAAAUGACUGAGGAUAUAUCGAUGAAAACAUGAGGAUCACCCAUGUGAUAAUAAAAAGGGUGGUAGAAGGUAGUCAACAAAC [Mod 12 of Pariah 4 by Hyphema in Round 1]	207
AGGAAACAUGAGGAUCACCCAUGUAAAUAUGGGCGAGGAUAUCGAAAGAAAAGAAAGAAACGAGAAGGCGCAAAAG [GU on the end]	295
GAAAAACAUGAGGAUCACCCAUGUAGAAAUAUGGGAGGAUAUACAAAGACGAAAGUCAAAGUAGAAGGCCUGAAGA [Mat - Same State 1 - JL mod - D91]	73.1
CGCAAACAUGAGGAUCACCCAUGUCAUUGUGAUCAAGGAUAUGGGUUCCGAAGUGGAACACCAGAAGGUGAGUAGU [Sozaer]	497
AGGAAACAUGAGGAUCACCCAUGUAAAAAUAUCACAGGAUAUGGAAACACGAAAGUGAAACCAGAAGGGUGAAAAG [77%, Mat - Mod of Eli, 13]	32
AAGAAACAUGAGGAUCACCCAUGUAGAAACAUGGGAGGAUAUACGAAGACGAAAGUCAAAGUAGAAGGCCUAAAAA [Garnet 90]	198
AAAAAACAUGAGGAUCACCCAUGUGAGAACAUGGGAGGAUAUACGAGGACGAGAGUCAAGGUAGAAGGCCUAAGAA [Garnet 68]	22.8
AACAAUCUAUCUGAGGAUAUCAUGUCAAAGACAUGAGGAUCACCCAUGUCCAGGAAAACUGGUCAUGAGAAGGCAGAUAGAUUGA [SS2: 1111]	887
AGGAAACAUGAGGAUCACCCAUGUAAAAUAAUGGGAGGAUAUGCGAAAAGAAAAAGAAAAGCAGAAGGCCUAAGAA [62%, Something completely different, 4]	98.6
